Test results reported in patent US20260139030A1.

Biological target: TNFα (Examples 10 and 11)
Assay: cell-based or functional assay

SEAP activity (NFκB/AP-1 reporter) in HEK-Blue Dectin2 cells, reduction against TNFα plus irrelevant protein | Substance
4 fold | TNFR2-Fc-Clec7a chimeric protein (Examples 10 and 11) (Fc fusion; the values are: fold reduction in SEAP activity)
> 20 fold | TNFR2-Fc-Dectin2 chimeric protein (Examples 10 and 11) (Fc fusion; the values are: fold reduction in SEAP activity)
